Source: the supplement of paper PMC7125110
± gives the standard error. For some of these results: Variants at the floor of the assay were thinned out.

B1: glmS ribozyme (parent)
chain: AUAAAAGCGCCAGAACUACAGAAAUGUAGUUGACGAGGAGGAGGUUUAUCGAAUUUUCGGCGGAUGCCUCCAAA

Legend:
Conditions in all cases: with glucosamine-6-phosphate
[1] = variants of: B1; assay: kcat; higher = faster cleavage; RNA array
In short: (§1)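 Barcoded ribozyme variants on sequenced MiSeq chips were transcribed in situ by E. coli RNA polymerase and followed at 37 °C through a hybridised Cy3 probe. Glucosamine-6-phosphate at 40 μM to 10 mM in HEPES/KCl/Mg(OAc)2 buffer was flowed in, and tiles were imaged over ~14 h. Signals were normalised to baseline and to non-cleaving reference variants, and per-tile medians were fit to one- or two-exponential decays to give kobs. Weighted Michaelis–Menten fits across concentrations gave kcat and KM.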

[2] = variants of: B1; assay: KM; higher = weaker cofactor use; RNA array
In short: as §1

[3] = variants of: B1; assay: self-cleavage kobs at 40 uM GlcN6P; higher = faster cleavage; RNA array
In short: as §1

[4] = variants of: B1; assay: self-cleavage kobs at 10000 uM GlcN6P; higher = faster cleavage; RNA array
In short: as §1

[5] = variants of: B1; assay: self-cleavage kobs at 160 uM GlcN6P; higher = faster cleavage; RNA array
In short: as §1

[6] = variants of: B1; assay: self-cleavage kobs at 640 uM GlcN6P; higher = faster cleavage; RNA array
In short: as §1

[7] = variants of: B1; assay: self-cleavage kobs at 2500 uM GlcN6P; higher = faster cleavage; RNA array
In short: as §1

Row | Variant | kcat [1] [s⁻¹] | KM [2] [µM] | self-cleavage kobs at 40 uM GlcN6P [3] [s⁻¹] | self-cleavage kobs at 10000 uM GlcN6P [4] [s⁻¹] | self-cleavage kobs at 160 uM GlcN6P [5] [s⁻¹] | self-cleavage kobs at 640 uM GlcN6P [6] [s⁻¹] | self-cleavage kobs at 2500 uM GlcN6P [7] [s⁻¹]
1 | A15G A52C | 2.96e-05 ± 2e-06 | 1090 ± 400 | < 1e-05 | 2.66e-05 ± 9.9e-06 |  |  | 
2 | A39G C67G | 0.00311 ± 0.00098 | 602 ± 300 | 0.000189 ± 4.5e-05 | 0.00223 ± 0.00066 | 0.000603 ± 0.00015 | 0.00174 ± 0.00035 | 0.00535 ± 0.0012
3 | G13U U54G | 0.00069 ± 0.00021 |  | 3.24e-05 ± 1.1e-05 | 0.000964 ± 0.00015 | 9.27e-05 ± 1.6e-05 | 0.000263 ± 6e-05 | 0.000363 ± 6.4e-05
4 | A33C G40A | 2.31e-05 ± 2.6e-06 | 4070 ± 1400 |  |  |  |  | 
5 | U55G C70G | 0.000127 ± 2.5e-05 |  | 2.75e-05 ± 1.4e-05 | 9.38e-05 ± 1.8e-05 | 7.54e-05 ± 1.6e-05 | 0.00014 ± 1.9e-05 | 0.000184 ± 3.8e-05
6 | A39G A53G | 0.0916 ± 0.024 | 2770 ± 830 | 0.0015 ± 0.00022 | 0.0725 ± 0.019 | 0.00433 ± 0.00068 | 0.0194 ± 0.0037 | 0.0404 ± 0.015
7 | G41A U54G | 0.000873 ± 0.00013 | 336 ± 90 | 9.13e-05 ± 1.9e-05 | 0.000661 ± 0.00021 |  | 0.00057 ± 0.00021 | 0.000898 ± 0.00016
8 | C11A A14G U65G | 0.000152 ± 6.2e-06 | 1370 ± 200 |  | 0.000135 ± 1.7e-05 |  | 5.21e-05 ± 1.7e-05 | 9.32e-05 ± 2e-05
9 | A14U G66C | 0.000139 ± 1.3e-05 | 5220 ± 1100 |  | 9.18e-05 ± 1e-05 |  |  | 4.36e-05 ± 8e-06
10 | G44U C68U | 2.53e-05 ± 4.3e-07 | 915 ± 100 | < 1e-05 | 2.31e-05 ± 7.7e-06 |  |  | 
11 | A12U A15U | 0.0118 ± 0.0023 | 1190 ± 320 | 0.000433 ± 4.6e-05 | 0.00986 ± 0.0013 | 0.0011 ± 0.00016 | 0.00509 ± 0.00065 | 0.00905 ± 0.0015
12 | A14G A52U | 0.000706 ± 1.3e-05 | 3890 ± 120 |  | 0.000509 ± 6.5e-05 |  | 9.98e-05 ± 1.6e-05 | 0.000274 ± 5.2e-05
13 | C11U G38A | < 1e-05 |  | < 1e-05 | < 1e-05 | < 1e-05 |  | 
14 | C16U G66C C67U | 3.45e-05 ± 4.4e-06 |  |  |  |  |  | 
15 | C11A U45A | 0.000361 ± 6.9e-05 | 3010 ± 1100 |  | 0.000262 ± 3.8e-05 |  | 5.63e-05 ± 1.2e-05 | 0.000214 ± 3.6e-05
